Consider 3 substances from article PMC4353693.

Experiment [1] has as its target C-terminally CFP-tagged P1aABD (P1aABD-CFP). Description: FRET or BRET. A general note: BRET reads energy transfer from a luciferase to a nearby fluorophore.
Experiment [2] addresses actin binding domain of plectin isoform 1a (P1aABD). Description: ITC. (ITC needs no label: the signal is the heat of the interaction.)
In a further experiment the target is P1aABDΔ22. Description: ITC.

pKd: −log10 of the molar value.

Consider “C-terminally yellow fluorescence protein (YFP)-tagged CaM (CaM-YFP) (from UniProt P0DP23 1-149) (natural protein)”, for which the FRET efficiency in experiment [1] worked out at 19%.
The substance “N-ter lobe of calmodulin (CaMNL) (from UniProt P0DP23 10-74) (domain or fragment)” gave a pKd in experiment [2] of 4.98.
In the case of “calmodulin (CaM), full length, with Ca2+ (from UniProt P0DP23 1-149) (natural protein)”, in experiment [2], the KD calculated with the competitive binding model is 2.3 µM, the pKd was 5.38 and the apparent KD in the presence of β4Fn12 (displacement) was determined as 7.7 µM. This substance also had a pKd with P1aABDΔ22 of 5.59.

For orientation: pKd means the Kd on a negative log10 scale, so that one unit is a factor of ten. A higher pKd goes with a low Kd.
